Test results: patent US9212231B2, “TRAIL R2-specific multimeric scaffolds” (MEDIMMUNE, LLC, dated 2015)

Legend:
[1] = target: Murine CD40L on the Th2 cell line D10.G4.1 (murine) (UniProt P27548)
[2] = target: TRAIL R2-Fc fusion protein (human) (UniProt O14763); assay: competition ELISA on plate-coated A9(1C12)
[3] = target: TRAIL R2-Fc fusion protein (human) (UniProt O14763); assay: competition ELISA: inhibition of binding of 0.75 nM biotinylated TRAIL R2-Fc to plate-coated A9(1C12)
[4] = target: TRAIL R2 (recombinant, form not given) (human, UniProt O14763, biotin (in the capture ELISA and the competition ELISA of Example 14)); assay: SPR (ProteOn XPR36), TRAIL R2 immobilised, equilibrium analysis
[5] = target: TRAIL R2 expressed on the cell surface (human, UniProt O14763); assay: cell-based or functional assay

TRAIL R2-Fc fusion protein (human), sequence (O14763 56-182 limits assumed): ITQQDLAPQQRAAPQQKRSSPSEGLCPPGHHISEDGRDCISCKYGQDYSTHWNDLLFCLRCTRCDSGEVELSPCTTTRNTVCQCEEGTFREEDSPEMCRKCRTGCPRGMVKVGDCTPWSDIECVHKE

| Molecule | IC50, inhibition of Murine CD40L-induced CD86 expression on CD19 gated B cells [1] [µM] | fold higher affinity relative to the monomeric A1 protein [2] [fold] | fold lower IC50 than the monomer A1 [2] [fold] | IC50 [3] [nM] | Fold Improvement (Kd, against lead clone 1C12) [4] [fold] | Kd [4] [nM] | EC50, killing of H2122 cells [5] [nM] | Maximum Inhibition %, H2122 cells [5] [%] |
| --- | --- | --- | --- | --- | --- | --- | --- | --- |
| MR1 antibody | 100 |  |  |  |  |  |  |  |
| A2(1E11) (designed binder) SGGGGSAIEVKDVTDTTALITWAKPWVDPPPLWGCELAYGIKDVPGDRTTIDLQQKHTAYSIGNLKPDTEYEVSLICFDPYGAKSNPAKETFTTGGGGSGGGGSGGGGSAIEVKDVTDTTALITWAKPWVDPPPLWGCELAYGIKDVPGDRTTIDLQQKHTAYSIGNLKPDTEYEVSLICFDPYGAKSNPAKETFTTGGGGSGGGGSGTLGHHHHHHHH |  | 30 to 40 | > 30 | 0.5 |  |  |  |  |
| A1(1E11) (designed binder) AIEVKDVTDTTALITWAKPWVDPPPLWGCELAYGIKDVPGDRTTIDLQQKHTAYSIGNLKPDTEYEVSLICFDPYGAKSNPAKETFTTGGGTLGHHHHHHHH |  |  |  | 16 | 40 | 103 |  |  |
| A3(1E11) (designed binder) SGGGGSAIEVKDVTDTTALITWAKPWVDPPPLWGCELAYGIKDVPGDRTTIDLQQKHTAYSIGNLKPDTEYEVSLICFDPYGAKSNPAKETFTTGGGGSGGGGSGGGGSAIEVKDVTDTTALITWAKPWVDPPPLWGCELAYGIKDVPGDRTTIDLQQKHTAYSIGNLKPDTEYEVSLICFDPYGAKSNPAKETFTTGGGGSGGGGSGGGGSAIEVKDVTDTTALITWAKPWVDPPPLWGCELAYGIKDVPGDRTTIDLQQKHTAYSIGNLKPDTEYEVSLICFDPYGAKSNPAKETFTTGGGGSGGGGSGGGGSAIEVKDVTDTTALITWAKPWVDPPPLWGCELAYGIKDVPGDRTTIDLQQKHTAYSIGNLKPDTEYEVSLICFDPYGAKSNPAKETFTTGGGGSGGGGSGTLGHHHHHHHH |  | 30 to 40 | > 30 | 0.4 |  |  | 0.013 | 91 |
